Measured values as given in PMC6265488.

Experiments:
Test in all cases: co-sedimentation
[1] = target: 39S large mitoribosome subunit (mtLSU) (human (endogenous in HEK293T or 143B))
[2] = target: 28S small mitoribosome subunit (mtSSU) (human (endogenous in HEK293T or 143B))
[3] = target: 55S monosome (human (endogenous in HEK293T or 143B))

Row | Substance | percent of total GTPBP10 that co-sediments [1] [%] | percent of total GTPBP10 that co-sediments [2] [%] | percent of total GTPBP10 that co-sediments [3] [%]
1 | GTPBP10 (endogenous in HEK293T, isoform 1) (from UniProt A4D1E9-1 1-387) (natural protein) | 10 | 10 | 1 to 2
2 | GTPBP10 (endogenous in 143B, isoform 2) (natural protein) | 10 | 10 | 1 to 2
